The source of these data is US20110171242A1 (published 2011).

For orientation: Kd means a measure of binding affinity in units of concentration. Low values mean higher affinity, high ones lower affinity. As a reminder, the koff is a measure of how fast the partners let go of each other. One may read the kon as the rate constant with which the complex forms. A high value points to faster complex formation. A word on the EC50: it is the concentration needed to bring the measured effect to its halfway point.

First the molecules themselves.
B1: murine LTβR:Fc (Fc fusion, mouse, UniProt P50284 31-221, looked up)
chain: QLVPPYRIENQTCWDQDKEYYEPMHDVCCSRCPPGEFVFAVCSRSQDTVCKTCPHNSYNEHWNHLSTCQLCRPCDIVLGFEEVAPCTSDRKAECRCQPGMSCVYLDNECVHCEEERLVLCQPGTEAEVTDEIMDTDVNCVPCKPGHFQNTSSPRARCQPHTRCEIQGLVEAAPGTSYSDTICKNPPEPGAM
notes: range 1-221; Encoded range includes the signal peptide; also called muLTβR:Fc; mouse LTβR:Fc; not shown: Fc region; human IgG1 by the opening sentence of the paragraph, not restated for this construct
B2: p30 (LIGHT), the cell surface HVEM ligand of activated II-23.D7 cells and human T cells (ligand)
chain: MEESVVRPSVFVVDGQTDIPFTRLGRSHRRQSCSVARVGLGLLLLLMGAGLAWQGWFLLQLHWRLGEMVTRLPDGPAGSWEQLIQERRSHEVNPAAHLTGANSSLTGSGGPLLWETQLGLAFLRGLSYHDGALVVTKAGYYYIYSKVQLGGVGCPLGLASTITHGLYKRTPRYPEELELLVSQQSPCGRATSSSRVWWDSSFLGGVVHLEAGEEVVVRVLDERLVRLRDGTRSYFGAFMV
notes: see m1; also called 30 kDa protein; cell surface ligand for HVEM
B8: human HVEM:Fc (Fc of human IgG1) (Fc fusion, UniProt Q92956 39-184, looked up)
chain: LPSCKEDEYPVGSECCPKCSPGYRVKEACGELTGTVCEPCPPGTYIAHLNGLSKCLQCQMCDPAMGLRASRNCSRTENAVCGCSPGHFCIVQDGDHCAACRAYATSSPGQRVQKGGTESQDTLCQNCPPGTFSPNGTLEECQHQTK
notes: range 1-184; Bivalent chimeric protein made with baculovirus vector pVL1392; also called huHVEM:Fc; hu HVEM:Fc; not shown: Fc region of human IgG1
B9: LTα homotrimer (ligand, UniProt P01374 35-205, looked up)
chain: LPGVGLTPSAAQTARQHPKMHLAHSTLKPAAHLIGDPSKQNSLLWRANTDRAFLQDGFSLSNNSLLVPTSGIYFVYSQVVFSGKAYSPKATSSPLYLAHEVQLFSSQYPFHVPLLSSQKMVYPGLQEPWLHSMYHGAAFQLTQGDQLSTHTDGIPHLVLSPSTVFFGAFAL

The target of experiment [1] is T1, LTα1β2 complex from II-23.D7 cells (human, UniProt P01374 35-205; Q06643 1-244).
T1 construct: also called LTβ (33 kDa) and LTα (23-25 kDa) complex
T1 sequence (looked up) 1: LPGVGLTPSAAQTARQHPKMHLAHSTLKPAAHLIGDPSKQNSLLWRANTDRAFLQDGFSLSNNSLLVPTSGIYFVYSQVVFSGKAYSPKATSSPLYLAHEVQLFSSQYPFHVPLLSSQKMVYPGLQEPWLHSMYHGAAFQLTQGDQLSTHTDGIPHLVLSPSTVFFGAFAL
T1 sequence (looked up) 2: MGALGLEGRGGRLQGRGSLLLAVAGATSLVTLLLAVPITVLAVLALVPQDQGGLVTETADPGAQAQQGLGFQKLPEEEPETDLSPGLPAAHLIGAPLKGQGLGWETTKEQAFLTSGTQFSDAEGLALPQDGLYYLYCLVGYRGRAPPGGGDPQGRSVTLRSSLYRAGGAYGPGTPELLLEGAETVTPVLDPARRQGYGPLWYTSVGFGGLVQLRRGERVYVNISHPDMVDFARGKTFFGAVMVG
The experiment in a line: 2D electrophoresis of proteins bound to murine LTβR:Fc, FIG. 4A.

A further experiment addresses T2, TNFR60:Fc (human, UniProt P19438 30-211, limits assumed).
T2 construct: Previously described construct (Crowe 1994); also called TNFR:Fc; TNFR1-Fc; not shown: Fc region of human IgG1
T2 sequence (looked up): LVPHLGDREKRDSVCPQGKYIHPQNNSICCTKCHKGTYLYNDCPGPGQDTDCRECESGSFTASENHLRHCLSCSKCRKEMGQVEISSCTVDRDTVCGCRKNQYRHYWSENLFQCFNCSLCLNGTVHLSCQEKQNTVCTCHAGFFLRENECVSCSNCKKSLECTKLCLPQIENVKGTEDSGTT
The experiment in a line: precipitation from detergent extracts of activated II-23.D7 cells, SDS-PAGE and 2D electrophoresis.

In a further experiment the target is LTβR (whole, in cells) (human, UniProt P36941 31-435). The experiment in a line: cell-based or functional assay.
For a further experiment, the target named is T3, murine HVEM:Fc (mouse; human, UniProt Q80WM9 39-205; P01857 99-330 = IgG part).
T3 construct: range 1-205;domain: Fc region; Produced in TN5 insect cells, protein A purified, 58 kDa reduced; Encoded range includes the signal peptide; also called muHVEM:Fc; mouse HVEM:Fc
The experiment can be described thus: ELISA, plate-bound receptor:Fc, M2 anti-FLAG detection. A general note: ELISA stands for enzyme-linked immunosorbent assay.

The target in the experiment “murine LTβR:Fc” is B1. The description is as above.
For experiment [2], the target named is B8. The experiment in a line: SPR (BIAcore 1000), receptor:Fc amine-coupled to CM5 chip, LIGHT as analyte 100-500 nM, 25 C.
The target of experiment [3] is T4, human LTβR:Fc (human, UniProt P36941 31-227, limits assumed).
T4 construct: Bivalent chimeric protein, previously described; also called huLTβR:Fc; hu LTβR:Fc; not shown: Fc region of human IgG1
The description is as above.

The target in experiment [4] is B8. The experiment in a line: ELISA, plate-bound receptor:Fc, M2 anti-FLAG detection.
For experiment [5], the target named is B8. The experiment can be described thus: SPR. (In SPR one partner is held on a chip, and binding of the other changes the refractive index at the surface.)
The target of experiment [6] is T4, human LTβR:Fc. The experiment can be described thus: SPR (BIAcore 1000), receptor:Fc amine-coupled to CM5 chip, LIGHT mutant as analyte.
The target in experiment [7] is B2. The experiment in a line: flow cytometry, graded HVEM:Fc on activated II-23.D7 cells.
The experiment “LTα homotrimer” has as its target B9. The experiment can be described thus: precipitation of 35S-labelled proteins with receptor:Fc and protein G, SDS-PAGE.
The target of the next experiment is TNF (UniProt P01375 77-233). The experiment in a line: precipitation of 35S-labelled secreted proteins of activated II-23.D7 cells with receptor:Fc 10 µg/ml and protein G, SDS-PAGE.
Experiment [8] deals with T5, TNFR1 on normal human dermal fibroblasts (human, UniProt P19438 30-455).
T5 sequence (looked up): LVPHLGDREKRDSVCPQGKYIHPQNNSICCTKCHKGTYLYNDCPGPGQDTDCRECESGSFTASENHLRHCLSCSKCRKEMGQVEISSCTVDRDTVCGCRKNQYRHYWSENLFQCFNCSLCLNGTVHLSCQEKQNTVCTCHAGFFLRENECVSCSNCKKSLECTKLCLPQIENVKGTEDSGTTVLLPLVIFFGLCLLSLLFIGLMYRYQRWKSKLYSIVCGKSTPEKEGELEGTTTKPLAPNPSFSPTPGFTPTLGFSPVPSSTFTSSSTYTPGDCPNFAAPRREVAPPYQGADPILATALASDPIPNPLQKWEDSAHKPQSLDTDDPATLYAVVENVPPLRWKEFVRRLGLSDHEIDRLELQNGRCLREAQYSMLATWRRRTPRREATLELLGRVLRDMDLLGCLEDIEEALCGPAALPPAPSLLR
The experiment can be described thus: cell-based or functional assay.

T3 sequence (Q80WM9 other isoform, or with tags, fused parts or gaps): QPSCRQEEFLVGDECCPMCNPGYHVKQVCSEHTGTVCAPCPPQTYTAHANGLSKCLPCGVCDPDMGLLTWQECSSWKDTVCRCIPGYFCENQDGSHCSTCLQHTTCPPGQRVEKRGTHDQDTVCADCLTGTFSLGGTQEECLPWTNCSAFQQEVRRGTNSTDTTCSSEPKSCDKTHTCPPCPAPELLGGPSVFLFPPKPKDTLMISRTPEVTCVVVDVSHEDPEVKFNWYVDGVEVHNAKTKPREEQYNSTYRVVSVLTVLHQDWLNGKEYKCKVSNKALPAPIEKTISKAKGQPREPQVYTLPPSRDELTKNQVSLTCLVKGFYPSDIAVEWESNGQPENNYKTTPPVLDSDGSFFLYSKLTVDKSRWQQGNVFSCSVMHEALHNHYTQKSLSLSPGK
T4 sequence (P36941 31-227 limits assumed): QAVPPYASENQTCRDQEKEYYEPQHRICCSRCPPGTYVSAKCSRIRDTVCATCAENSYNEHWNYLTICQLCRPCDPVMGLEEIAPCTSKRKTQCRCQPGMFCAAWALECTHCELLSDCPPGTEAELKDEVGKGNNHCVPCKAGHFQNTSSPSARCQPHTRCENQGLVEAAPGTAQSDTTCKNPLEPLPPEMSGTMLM
Chain of TNF (P01375 77-233 limits assumed): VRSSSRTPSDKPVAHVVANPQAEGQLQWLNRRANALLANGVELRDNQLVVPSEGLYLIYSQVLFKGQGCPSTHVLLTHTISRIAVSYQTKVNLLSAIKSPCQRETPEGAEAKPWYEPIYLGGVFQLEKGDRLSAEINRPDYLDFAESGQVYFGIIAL

B1: in [1], the binding result is given as “binds”.

Consider B2, for which, in the experiment with TNFR60:Fc, the binding result is “no binding”.

B3: LIGHTt66-FLAG (ligand, not shown: small tags and cut ends)
chain: EMVTRLPDGPAGSWEQLIQERRSHEVNPAAHLTGANSSLTGSGGPLLWETQLGLAFLRGLSYHDGALVVTKAGYYYIYSKVQLGGVGCPLGLASTITHGLYKRTPRYPEELELLVSQQSPCGRATSSSRVWWDSSFLGGVVHLEAGEEVVVRVLDERLVRLRDGTRSYFGAFMV
notes: also called soluble homotrimeric LIGHT; recombinant soluble LIGHT
Consider B3, for which, in the experiment with LTβR (whole, in cells), the “IC50 for inhibition of HCMV pp28 expression (western blot)” value was about 0.4 nM and the “up-regulation of ICAM expression by NHDF cells (flow cytometry, 36 h, 5 nM)” value came out at 4 fold. Besides, the “fold lower affinity than for the human receptor” value with murine HVEM:Fc was 10 fold. Moreover, the “fold lower affinity than for the human receptor” value with murine LTβR:Fc is 10 fold. In experiment [2], this molecule gave a Kd of 3.9 nM, a koff of 4.8e-05 s⁻¹ and a kon of 12000 M⁻¹ s⁻¹. In addition, in the experiment with human LTβR:Fc [3], binding was put at a Kd of 4.5 nM, the off-rate (koff) worked out at 0.00012 s⁻¹ and the kon came out at 27000 M⁻¹ s⁻¹.

B4: LIGHT t66 Q117T (ligand, not shown: small tags and cut ends)
chain: EMVTRLPDGPAGSWEQLIQERRSHEVNPAAHLTGANSSLTGSGGPLLWETTLGLAFLRGLSYHDGALVVTKAGYYYIYSKVQLGGVGCPLGLASTITHGLYKRTPRYPEELELLVSQQSPCGRATSSSRVWWDSSFLGGVVHLEAGEEVVVRVLDERLVRLRDGTRSYFGAFMV
notes: FLAG-tagged point mutant from transiently transfected 293T cells, homotrimer; also called Q11TT
For B4, in experiment [2], the Kd was 0.3 nM, the koff was 5e-06 s⁻¹ and the kon came out at 20000 M⁻¹ s⁻¹. In addition, in the experiment with human LTβR:Fc [3], the Kd came out at 1.5 nM, the koff was found to be 4.5e-05 s⁻¹ and the kon stood at 32000 M⁻¹ s⁻¹.

B5: LIGHT t66 L120Q (ligand, not shown: small tags and cut ends)
chain: EMVTRLPDGPAGSWEQLIQERRSHEVNPAAHLTGANSSLTGSGGPLLWETQLGQAFLRGLSYHDGALVVTKAGYYYIYSKVQLGGVGCPLGLASTITHGLYKRTPRYPEELELLVSQQSPCGRATSSSRVWWDSSFLGGVVHLEAGEEVVVRVLDERLVRLRDGTRSYFGAFMV
notes: FLAG-tagged point mutant from transiently transfected 293T cells, homotrimer; also called L12OQ
With B5, the binding result (in experiment [4]; with murine LTβR:Fc) was “binds” each time.

B6: LIGHT t66 G119E (ligand, not shown: small tags and cut ends)
chain: EMVTRLPDGPAGSWEQLIQERRSHEVNPAAHLTGANSSLTGSGGPLLWETQLELAFLRGLSYHDGALVVTKAGYYYIYSKVQLGGVGCPLGLASTITHGLYKRTPRYPEELELLVSQQSPCGRATSSSRVWWDSSFLGGVVHLEAGEEVVVRVLDERLVRLRDGTRSYFGAFMV
notes: FLAG-tagged point mutant from transiently transfected 293T cells, homotrimer; also called LIGHTG119E; LIGHT-G119E
For the molecule B6, in experiment [5], the “fold lower affinity than LIGHT t66” value was about 30 fold. The “up-regulation of ICAM expression by NHDF cells (flow cytometry, 36 h, 20 nM)” value with LTβR (whole, in cells) was under 1.5 fold. Also, the figures for the binding result with murine HVEM:Fc, with murine LTβR:Fc and with human LTβR:Fc [6] were “no binding”, “no binding” and “no binding (tested: 100 to 500 nM)”, respectively. Also, the Kd in [2] was found to be 114 nM. For the same molecule, the koff in [2] is 0.002 s⁻¹. This molecule also showed a kon in experiment [2] of 18000 M⁻¹ s⁻¹.

B7: LIGHT t66 Y173F (ligand, not shown: small tags and cut ends)
chain: EMVTRLPDGPAGSWEQLIQERRSHEVNPAAHLTGANSSLTGSGGPLLWETQLGLAFLRGLSYHDGALVVTKAGYYYIYSKVQLGGVGCPLGLASTITHGLYKRTPRFPEELELLVSQQSPCGRATSSSRVWWDSSFLGGVVHLEAGEEVVVRVLDERLVRLRDGTRSYFGAFMV
notes: FLAG-tagged point mutant from transiently transfected 293T cells, homotrimer
With B7, in experiment [5], binding was put at a Kd of 180 nM and the “fold lower affinity than LIGHT t66” value is over 40 fold. In the experiment with LTβR (whole, in cells), the “up-regulation of ICAM expression by NHDF cells (flow cytometry, 36 h, 20 nM)” value is 2.5 fold. Moreover, the binding result in the experiment with murine HVEM:Fc is reported as “no binding”. Also, the binding result with murine LTβR:Fc is on record as “no binding”. In [2], this molecule returned a Kd of 173 nM, a koff of 0.0033 s⁻¹ and a kon of 19000 M⁻¹ s⁻¹. In the experiment with human LTβR:Fc [3], this molecule yielded a Kd of 31 nM, a koff of 0.0011 s⁻¹ and a kon of 37000 M⁻¹ s⁻¹.

In the case of B8, the EC50 in experiment [7] was about 20 nM. Moreover, the binding result with LTα homotrimer is “binds”; in the experiment with TNF, “no binding”.

As to B9, in [8], the “IC50 for inhibition of HCMV pp28 expression (western blot)” value is about 0.01 nM; the “anti-viral activity against LTα1β2 and LIGHT (pp28 expression)” value was at least 40 fold.
